Laboratory results reported in article PMC13161473 (2025).
Blank lines part the entries; values can stand above or below the binder they belong to.

What was measured:
[1] = plasma membrane Siglec-15 level; conditions: glycan lost; control: Siglec-15-flag (wild type)
[2] = immunostaining flag/lamp1, Pearson's correlation; conditions: glycan lost; control: Siglec-15-flag (wild type)
[3] = Ca2+ release assay, Daoy cells; conditions: glycan lost; control: Siglec-15-flag (wild type)
[4] = target: T1, recombinant human TRPML1 E1 domain (human); assay: BLI
T1 chain: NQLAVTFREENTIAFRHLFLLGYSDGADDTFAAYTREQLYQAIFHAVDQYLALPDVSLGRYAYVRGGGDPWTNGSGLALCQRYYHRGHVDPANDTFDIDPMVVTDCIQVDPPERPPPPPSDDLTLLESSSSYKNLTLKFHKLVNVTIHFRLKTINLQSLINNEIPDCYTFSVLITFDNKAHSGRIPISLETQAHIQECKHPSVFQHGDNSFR

[5] = target: CI-MPR used for biolayer interferometry (UniProt P11717 41-2491); assay: BLI

B1: Siglec-15: N172Q (protein)
parent chain: MEKSIWLLACLAWVLPTGSFVRTKIDTTENLLNTEVHSSPAQRWSMQVPPEVSAEAGDAAVLPCTFTHPHRHYDGPLTAIWRAGEPYAGPQVFRCAAARGSELCQTALSLHGRFRLLGNPRRNDLSLRVERLALADDRRYFCRVEFAGDVHDRYESRHGVRLHVTAAPRIVNISVLPSPAHAFRALCTAEGEPPPALAWSGPALGNSLAAVRSPREGHGHLVTAELPALTHDGRYTCTAANSLGRSEASVYLFRFHGASGASTVALLLGALGFKALLLLGVLAARAARRRPEHLDTPDTPPRSQAQESNYENLSQMNPRSPPATMCSP
localisation_or_trafficking [1]: no change
localisation_or_trafficking [2]: decreases
other: lysosomal Ca2+ release [3]: decreases

Kd [4]: 0.499 nM
Kd [5]: 1.04 nM
B2: recombinant Siglec-15-N (263 AAs) (domain or fragment)
chain: FVRTKIDTTENLLNTEVHSSPAQRWSMQVPPEVSAEAGDAAVLPCTFTHPHRHYDGPLTAIWRAGEPYAGPQVFRCAAARGSELCQTALSLHGRFRLLGNPRRNDLSLRVERLALADDRRYFCRVEFAGDVHDRYESRHGVRLHVTAAPRIVNISVLPSPAHAFRALCTAEGEPPPALAWSGPALGNSLAAVRSPREGHGHLVTAELPALTHDGRYTCTAANSLGRSEASVYLFRFHGASGAST
